Molecular target: Ad5 hexon with DogTag inserted at HVR5, on Ad-DogTag virions (human adenovirus 5 (Ad5)) (UniProt P04133)
Assay: SDS-PAGE gel shift

Substance: DogCatcher fused to SARS-CoV-2 spike receptor-binding domain (DogCatcher-RBD) (from UniProt P0DTC2 319-532) (designed binder)
- percent of hexon covalently coupled (% of hexon monomers): 57
